Experimental data published in US20220402983A1 (Janssen / Centocor, published 2022).
*1 amine or outer side, *2 acyl side, *3 side chain or, on linkers, in order; H or OH if unused. Bridges are numbered along the chain shown (N, C = ends). [ ]: non-standard residue; d: D form. (N-(imidazol-2-yl)methyl)Asn = N-(imidazol-2-yl)methyl-asparagine, O=C(C[C@H](N[*:1])C(=O)[*:2])NCc1ncc[nH]1; (N-(3-aminophenyl))Asn = N-(3-aminophenyl)-asparagine, O=C(C[C@H](N[*:1])C(=O)[*:2])Nc1cccc(N[*:3])c1; (N-(3-Pyz))Asn = N-pyrazol-3-yl-asparagine, O=C(C[C@H](N[*:1])C(=O)[*:2])Nc1cc[nH]n1; dPhe(3-NH2) = D-3-aminophenylalanine, O=C([C@@H](Cc1cccc(N[*:3])c1)N[*:1])[*:2]; Trp(7-Me) = Cc1cccc2c(C[C@H](N)C(=O)O)c[nH]c12; (N-Pyr)Asn = N-pyrrolidin-3-yl-asparagine; dPhe(4-NH2) = Nc1ccc(C[C@@H](N)C(=O)O)cc1; (N-Pip)Asn = N-piperidin-4-yl-asparagine; 2Nal = N[C@@H](Cc1ccc2ccccc2c1)C(=O)O; AEF = NCCOc1ccc(C[C@H](N)C(=O)O)cc1; αMeF = C[C@](N)(Cc1ccccc1)C(=O)O; 3Pal = N[C@@H](Cc1cccnc1)C(=O)O; Pen = CC(C)(S)[C@H](N)C(=O)O; αMeK = C[C@](N)(CCCCN)C(=O)O; αMeC = C[C@](N)(CS)C(=O)O; Thp = NC1(C(=O)O)CCOCC1; Abu = CC[C@H](N)C(=O)O

T1: human IL-23R (interleukin-23 receptor) (human, UniProt Q5VWK5 24-629)
T1 sequence (looked up): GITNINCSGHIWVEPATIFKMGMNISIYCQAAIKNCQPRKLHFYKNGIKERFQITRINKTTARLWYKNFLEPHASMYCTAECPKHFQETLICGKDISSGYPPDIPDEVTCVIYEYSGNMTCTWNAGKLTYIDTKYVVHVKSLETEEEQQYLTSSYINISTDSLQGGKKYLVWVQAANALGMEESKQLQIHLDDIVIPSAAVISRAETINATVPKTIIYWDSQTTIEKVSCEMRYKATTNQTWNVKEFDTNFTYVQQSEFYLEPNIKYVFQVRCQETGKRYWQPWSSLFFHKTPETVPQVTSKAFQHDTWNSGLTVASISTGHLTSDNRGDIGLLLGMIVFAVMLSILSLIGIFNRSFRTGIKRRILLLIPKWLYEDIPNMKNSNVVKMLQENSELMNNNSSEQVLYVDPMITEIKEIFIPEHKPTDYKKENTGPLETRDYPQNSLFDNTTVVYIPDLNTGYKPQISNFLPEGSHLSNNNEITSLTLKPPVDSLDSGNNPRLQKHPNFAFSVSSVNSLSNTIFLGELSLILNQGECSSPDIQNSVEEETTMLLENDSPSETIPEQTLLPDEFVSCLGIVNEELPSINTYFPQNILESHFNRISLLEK

B1: Compound No. 120 (peptide)
peptide: CNTXQCFXKKNX
modifications: Ac-[Cys]-N-T-[W(7-Me)]-Q-[aMeCys]-Phe[4-(2-aminoethoxy)]-[2-Nal]-[a-MeLys]-[Lys(Ac)]-N-[THP]-NH2; cyclized: Cys-aMeCys disulfide bond
B2: Compound No. 128 (peptide)
peptide: Ac-[dR][Pen]QTWQ[Pen][AEF][2Nal][Thp]EN[(N-Pyr)Asn]-NH2
modifications: disulfide 2-7
B3: Compound No. 116 (peptide)
peptide: Ac-[Pen]NT[Trp(7-Me)]K(Ac)[Pen][AEF][2Nal][αMeK]K(Ac)N[αMeF][3Pal]-NH2
modifications: disulfide 1-6
SMILES: CC(=O)NCCCC[C@@H]1NC(=O)[C@H](Cc2c[nH]c3c(C)cccc23)NC(=O)[C@H]([C@@H](C)O)NC(=O)[C@H](CC(N)=O)NC(=O)[C@@H](NC(C)=O)C(C)(C)SSC(C)(C)[C@@H](C(=O)N[C@@H](Cc2ccc(OCCN)cc2)C(=O)N[C@@H](Cc2ccc3ccccc3c2)C(=O)N[C@@](C)(CCCCN)C(=O)N[C@@H](CCCCNC(C)=O)C(=O)N[C@@H](CC(N)=O)C(=O)N[C@@](C)(Cc2ccccc2)C(=O)N[C@@H](Cc2cccnc2)C(N)=O)NC1=O
B4: Compound No. 119 (peptide)
peptide: CNTXQCFXKKNF
modifications: Ac-[Cys]-N-T-[W(7-Me)]-Q-[aMeCys]-Phe[4-(2-aminoethoxy)]-[2-Nal]-[a-MeLys]-[Lys(Ac)]-N-[a-MePhe]-NH2; cyclized: Cys-aMeCys disulfide bond
B5: Compound No. 133 (peptide)
peptide: Ac-[dR][Pen]QTWQ[Pen][AEF][2Nal][Thp]EN[(N-(3-Pyz))Asn]-NH2
modifications: disulfide 2-7
SMILES: CC(=O)N[C@H](CCCNC(=N)N)C(=O)N[C@@H]1C(=O)N[C@@H](CCC(N)=O)C(=O)N[C@@H]([C@@H](C)O)C(=O)N[C@@H](Cc2c[nH]c3ccccc23)C(=O)N[C@@H](CCC(N)=O)C(=O)N[C@H](C(=O)N[C@@H](Cc2ccc(OCCN)cc2)C(=O)N[C@@H](Cc2ccc3ccccc3c2)C(=O)NC2(C(=O)N[C@@H](CCC(=O)O)C(=O)N[C@@H](CC(N)=O)C(=O)N[C@@H](CC(=O)Nc3cc[nH]n3)C(N)=O)CCOCC2)C(C)(C)SSC1(C)C
B6: Compound No. 137 (peptide)
peptide: Ac-[dR][Pen]QTWQ[Pen][AEF][2Nal][Thp]EN[(N-(imidazol-2-yl)methyl)Asn]-NH2
modifications: disulfide 2-7
SMILES: CC(=O)N[C@H](CCCNC(=N)N)C(=O)N[C@@H]1C(=O)N[C@@H](CCC(N)=O)C(=O)N[C@@H]([C@@H](C)O)C(=O)N[C@@H](Cc2c[nH]c3ccccc23)C(=O)N[C@@H](CCC(N)=O)C(=O)N[C@H](C(=O)N[C@@H](Cc2ccc(OCCN)cc2)C(=O)N[C@@H](Cc2ccc3ccccc3c2)C(=O)NC2(C(=O)N[C@@H](CCC(=O)O)C(=O)N[C@@H](CC(N)=O)C(=O)N[C@@H](CC(=O)NCc3ncc[nH]3)C(N)=O)CCOCC2)C(C)(C)SSC1(C)C
B7: Compound No. 127 (peptide)
peptide: Ac-[dR][Pen]QTWQ[Pen][AEF][2Nal][Thp]EN[(N-Pip)Asn]-NH2
modifications: disulfide 2-7
B8: Compound No. 124 (peptide)
peptide: Ac-[dR][Pen]NT[Trp(7-Me)]K(Ac)[Pen][AEF][2Nal][Thp]EN[αMeF]-NH2
modifications: disulfide 2-7
SMILES: CC(=O)NCCCC[C@@H]1NC(=O)[C@H](Cc2c[nH]c3c(C)cccc23)NC(=O)[C@H]([C@@H](C)O)NC(=O)[C@H](CC(N)=O)NC(=O)[C@@H](NC(=O)[C@@H](CCCNC(=N)N)NC(C)=O)C(C)(C)SSC(C)(C)[C@@H](C(=O)N[C@@H](Cc2ccc(OCCN)cc2)C(=O)N[C@@H](Cc2ccc3ccccc3c2)C(=O)NC2(C(=O)N[C@@H](CCC(=O)O)C(=O)N[C@@H](CC(N)=O)C(=O)N[C@@](C)(Cc3ccccc3)C(N)=O)CCOCC2)NC1=O
B9: Compound No. 122 (peptide)
peptide: Ac-CNTWK(Ac)[αMeC][AEF][2Nal][αMeK]K(Ac)N[αMeF]-NH2
modifications: disulfide 1-6
SMILES: CC(=O)NCCCC[C@@H]1NC(=O)[C@H](Cc2c[nH]c3ccccc23)NC(=O)[C@H]([C@@H](C)O)NC(=O)[C@H](CC(N)=O)NC(=O)[C@@H](NC(C)=O)CSSC[C@@](C)(C(=O)N[C@@H](Cc2ccc(OCCN)cc2)C(=O)N[C@@H](Cc2ccc3ccccc3c2)C(=O)N[C@@](C)(CCCCN)C(=O)N[C@@H](CCCCNC(C)=O)C(=O)N[C@@H](CC(N)=O)C(=O)N[C@@](C)(Cc2ccccc2)C(N)=O)NC1=O
B10: Compound No. 121 (peptide)
peptide: Ac-CNTWK(Ac)[αMeC][AEF][2Nal][αMeK]K(Ac)N[Thp]-NH2
modifications: disulfide 1-6
SMILES: CC(=O)NCCCC[C@@H]1NC(=O)[C@H](Cc2c[nH]c3ccccc23)NC(=O)[C@H]([C@@H](C)O)NC(=O)[C@H](CC(N)=O)NC(=O)[C@@H](NC(C)=O)CSSC[C@@](C)(C(=O)N[C@@H](Cc2ccc(OCCN)cc2)C(=O)N[C@@H](Cc2ccc3ccccc3c2)C(=O)N[C@@](C)(CCCCN)C(=O)N[C@@H](CCCCNC(C)=O)C(=O)N[C@@H](CC(N)=O)C(=O)NC2(C(N)=O)CCOCC2)NC1=O
B11: Compound No. 130 (peptide)
peptide: Ac-[dR][Pen]QTWQ[Pen][AEF][2Nal][Thp]EN[(N-(3-aminophenyl))Asn]-NH2
modifications: disulfide 2-7
SMILES: CC(=O)N[C@H](CCCNC(=N)N)C(=O)N[C@@H]1C(=O)N[C@@H](CCC(N)=O)C(=O)N[C@@H]([C@@H](C)O)C(=O)N[C@@H](Cc2c[nH]c3ccccc23)C(=O)N[C@@H](CCC(N)=O)C(=O)N[C@H](C(=O)N[C@@H](Cc2ccc(OCCN)cc2)C(=O)N[C@@H](Cc2ccc3ccccc3c2)C(=O)NC2(C(=O)N[C@@H](CCC(=O)O)C(=O)N[C@@H](CC(N)=O)C(=O)N[C@@H](CC(=O)Nc3cccc(N)c3)C(N)=O)CCOCC2)C(C)(C)SSC1(C)C
B12: Compound No. 117 (peptide)
peptide: Ac-CNT[Trp(7-Me)]K(Ac)[αMeC][AEF][2Nal][αMeK]K(Ac)N[Thp]-NH2
modifications: disulfide 1-6
SMILES: CC(=O)NCCCC[C@@H]1NC(=O)[C@H](Cc2c[nH]c3c(C)cccc23)NC(=O)[C@H]([C@@H](C)O)NC(=O)[C@H](CC(N)=O)NC(=O)[C@@H](NC(C)=O)CSSC[C@@](C)(C(=O)N[C@@H](Cc2ccc(OCCN)cc2)C(=O)N[C@@H](Cc2ccc3ccccc3c2)C(=O)N[C@@](C)(CCCCN)C(=O)N[C@@H](CCCCNC(C)=O)C(=O)N[C@@H](CC(N)=O)C(=O)NC2(C(N)=O)CCOCC2)NC1=O
B13: Compound No. 118 (peptide)
peptide: Ac-CNT[Trp(7-Me)]K(Ac)[αMeC][AEF][2Nal][αMeK]K(Ac)N[αMeF]-NH2
modifications: disulfide 1-6
SMILES: CC(=O)NCCCC[C@@H]1NC(=O)[C@H](Cc2c[nH]c3c(C)cccc23)NC(=O)[C@H]([C@@H](C)O)NC(=O)[C@H](CC(N)=O)NC(=O)[C@@H](NC(C)=O)CSSC[C@@](C)(C(=O)N[C@@H](Cc2ccc(OCCN)cc2)C(=O)N[C@@H](Cc2ccc3ccccc3c2)C(=O)N[C@@](C)(CCCCN)C(=O)N[C@@H](CCCCNC(C)=O)C(=O)N[C@@H](CC(N)=O)C(=O)N[C@@](C)(Cc2ccccc2)C(N)=O)NC1=O
B14: Compound No. 114 (peptide)
peptide: Ac-[Pen]NT[Trp(7-Me)]K(Ac)[Pen][AEF][2Nal][αMeK]K(Ac)N[αMeF][dPhe(4-NH2)]-NH2
modifications: disulfide 1-6
SMILES: CC(=O)NCCCC[C@@H]1NC(=O)[C@H](Cc2c[nH]c3c(C)cccc23)NC(=O)[C@H]([C@@H](C)O)NC(=O)[C@H](CC(N)=O)NC(=O)[C@@H](NC(C)=O)C(C)(C)SSC(C)(C)[C@@H](C(=O)N[C@@H](Cc2ccc(OCCN)cc2)C(=O)N[C@@H](Cc2ccc3ccccc3c2)C(=O)N[C@@](C)(CCCCN)C(=O)N[C@@H](CCCCNC(C)=O)C(=O)N[C@@H](CC(N)=O)C(=O)N[C@@](C)(Cc2ccccc2)C(=O)N[C@H](Cc2ccc(N)cc2)C(N)=O)NC1=O
B15: Compound No. 115 (peptide)
peptide: Ac-[Pen]NT[Trp(7-Me)]K(Ac)[Pen][AEF][2Nal][αMeK]K(Ac)N[αMeF][dPhe(3-NH2)]-NH2
modifications: disulfide 1-6
SMILES: CC(=O)NCCCC[C@@H]1NC(=O)[C@H](Cc2c[nH]c3c(C)cccc23)NC(=O)[C@H]([C@@H](C)O)NC(=O)[C@H](CC(N)=O)NC(=O)[C@@H](NC(C)=O)C(C)(C)SSC(C)(C)[C@@H](C(=O)N[C@@H](Cc2ccc(OCCN)cc2)C(=O)N[C@@H](Cc2ccc3ccccc3c2)C(=O)N[C@@](C)(CCCCN)C(=O)N[C@@H](CCCCNC(C)=O)C(=O)N[C@@H](CC(N)=O)C(=O)N[C@@](C)(Cc2ccccc2)C(=O)N[C@H](Cc2cccc(N)c2)C(N)=O)NC1=O
B16: Compound No. 123 (peptide)
peptide: Ac-[dR][Abu]QTWQC[AEF][2Nal][Thp]EN[αMeF]-NH2
modifications: thioether 2-7

target: T1, human IL-23R (interleukin-23 receptor); test: cell-based or functional assay

First: B1
Second: B2
The “PBMC pSTAT3 IC50 (nM)” value of the first is lower: 4.9 nM for the first, 51 nM for the second.

Going from B3 to B4, the “PBMC pSTAT3 IC50 (nM)” value falls from 20 nM to 5.3 nM.

First: B5
Second: B6
The “PBMC pSTAT3 IC50 (nM)” value of the first is higher: 21 nM for the first, 14 nM for the second.

Going from B7 to B8, the “PBMC pSTAT3 IC50 (nM)” value falls from 48 nM to 11 nM.

Going from B9 to B10, the “PBMC pSTAT3 IC50 (nM)” value falls from 54 nM to 41 nM.

Going from B11 to B12, the “PBMC pSTAT3 IC50 (nM)” value falls from 9.2 nM to 7.1 nM.

Going from B13 to B14, the “PBMC pSTAT3 IC50 (nM)” value falls from 30 nM to 12 nM.

Compared with B15, B16 is lower in “PBMC pSTAT3 IC50 (nM)” value: 39 nM for the first, 11 nM for the second.
